# Laboratory results taken from US7250488 (Kyowa Kirin, dated 2007).
# T1: mouse β-catenin (mouse, UniProt Q02248 2-781)
# T1 construct: mature; also called ^35S-labeled β-catenin
# T1 sequence (looked up): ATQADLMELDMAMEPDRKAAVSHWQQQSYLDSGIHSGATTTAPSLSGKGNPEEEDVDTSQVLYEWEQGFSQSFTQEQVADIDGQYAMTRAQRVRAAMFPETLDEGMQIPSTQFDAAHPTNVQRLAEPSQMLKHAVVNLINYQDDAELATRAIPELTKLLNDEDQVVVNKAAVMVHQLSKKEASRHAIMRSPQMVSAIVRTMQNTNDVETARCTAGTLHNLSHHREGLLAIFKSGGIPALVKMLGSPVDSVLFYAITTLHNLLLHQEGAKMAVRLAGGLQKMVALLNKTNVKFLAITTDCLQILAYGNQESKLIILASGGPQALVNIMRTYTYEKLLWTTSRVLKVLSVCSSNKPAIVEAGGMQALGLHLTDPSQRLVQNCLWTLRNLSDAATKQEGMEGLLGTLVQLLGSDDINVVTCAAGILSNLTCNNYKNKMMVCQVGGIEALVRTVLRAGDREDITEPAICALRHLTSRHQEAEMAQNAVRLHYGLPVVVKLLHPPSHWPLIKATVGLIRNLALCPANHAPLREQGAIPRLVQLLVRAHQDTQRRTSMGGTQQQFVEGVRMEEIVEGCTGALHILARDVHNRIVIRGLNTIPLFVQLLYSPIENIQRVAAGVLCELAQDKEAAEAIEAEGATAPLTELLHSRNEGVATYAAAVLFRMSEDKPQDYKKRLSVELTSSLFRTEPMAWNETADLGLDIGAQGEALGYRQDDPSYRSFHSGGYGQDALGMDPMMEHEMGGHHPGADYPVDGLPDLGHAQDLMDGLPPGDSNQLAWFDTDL
# T2: N-terminal portion of mouse β-catenin (residues 1 to 140), ^35S-labeled (mouse, UniProt Q02248 1-140)
# T2 construct: range 1-140; Translated in vitro with ^35S-methionine
# T2 sequence (looked up): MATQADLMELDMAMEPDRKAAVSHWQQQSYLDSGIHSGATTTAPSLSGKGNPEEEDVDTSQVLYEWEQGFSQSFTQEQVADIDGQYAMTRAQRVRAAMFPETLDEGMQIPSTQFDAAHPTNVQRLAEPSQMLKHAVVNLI
# T3: C-terminal portion of mouse β-catenin (residues 665 to 782), ^35S-labeled (mouse, UniProt Q02248 665-781)
# T3 construct: range 665-782; Translated in vitro with ^35S-methionine
# T3 sequence (looked up): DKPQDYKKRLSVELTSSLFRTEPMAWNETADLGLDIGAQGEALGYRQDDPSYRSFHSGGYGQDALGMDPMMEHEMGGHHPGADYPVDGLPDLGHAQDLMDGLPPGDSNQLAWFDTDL
# B1: ICAT(21-81), GAL4 AD fusion (other, not shown: large carriers)
# chain: RVLLMLRKMGSNLTASEEEFLRTYAGVVSSQLSQLPQHSIDQGAEDVVMAFSRSETEDRRQ
# notes: Mouse ICAT deletion mutant used as a two-hybrid prey; also called (d) ICAT(21-81)
# B2: mouse ICAT (inhibitor of β-catenin and TCF) (other)
# chain: MNREGAPGKSPEEMYIQQKVRVLLMLRKMGSNLTASEEEFLRTYAGVVSSQLSQLPQHSIDQGAEDVVMAFSRSETEDRRQ
# notes: Untagged full-length mouse ICAT (81 amino acids); It was tested expressed from pMKITneo in COS-7 and other animal cells, translated in vitro in reticulocyte lysate, and as the endogenous protein of mouse brain; also called 9-kDa protein
# B3: GST/ICAT (fusion protein between GST and ICAT) (other)
# chain: MNREGAPGKSPEEMYIQQKVRVLLMLRKMGSNLTASEEEFLRTYAGVVSSQLSQLPQHSIDQGAEDVVMAFSRSETEDRRQ
# notes: Mouse ICAT cDNA was subcloned between EcoRI/SalI of pGEX5X-1, so ICAT sits on the C-terminal side of GST; Expressed in E. coli; not shown: glutathione S-transferase (GST) as encoded by vector pGEX5X-1
# B4: ICAT(E37-39A), GAL4 AD fusion (other, not shown: large carriers)
# chain: MNREGAPGKSPEEMYIQQKVRVLLMLRKMGSNLTASAAAFLRTYAGVVSSQLSQLPQHSIDQGAEDVVMAFSRSETEDRRQ
# notes: The glutamic acid residues 37, 38 and 39 are converted to alanine; Used as a two-hybrid prey; also called (j) ICAT(E37-39A)
# B5: ICAT(E37-39A) expressed as a GST fusion protein (other)
# chain: MNREGAPGKSPEEMYIQQKVRVLLMLRKMGSNLTASAAAFLRTYAGVVSSQLSQLPQHSIDQGAEDVVMAFSRSETEDRRQ
# notes: Expressed in E. coli; not shown: glutathione S-transferase (GST); made in the same manner as GST/ICAT
# B6: ICAT (21-61), GAL4 AD fusion (other, not shown: large carriers)
# chain: RVLLMLRKMGSNLTASEEEFLRTYAGVVSSQLSQLPQHSID
# notes: Mouse ICAT deletion mutant used as a two-hybrid prey; also called (g) ICAT(21-61)
# B7: ICAT (42-81), GAL4 AD fusion (other, not shown: large carriers)
# chain: RTYAGVVSSQLSQLPQHSIDQGAEDVVMAFSRSETEDRRQ
# notes: Mouse ICAT deletion mutant used as a two-hybrid prey; also called (e) ICAT(42-81)
# B8: ICAT(1-41), GAL4 AD fusion (other, not shown: large carriers)
# chain: MNREGAPGKSPEEMYIQQKVRVLLMLRKMGSNLTASEEEFL
# notes: Mouse ICAT deletion mutant used as a two-hybrid prey; also called (b) ICAT(1-41)
# How the values were obtained:
# [1] = biological target: T4, GAL4-β-catenin fusion protein (GAL4 BD fused with mβ-catenin arm, residues 141 to 664) (yeast; mouse, UniProt P04386 1-147; Q02248 141-664); assay: yeast two-hybrid, β-galactosidase activity
# T4 construct: Two-hybrid bait expressed in yeast HF7C; also called bait for mβ-catenin arm
# Text: Specifically, both mouse fetal cDNA library for the two-hybrid system and plasmid GAL4-β-catenin prepared in (1) were introduced in yeast *Saccharomyces cerevisiae* HF7C strain (Clontech). HF7C strain is a yeast strain that is tryptophan-, leucine-, and histidine-auxotrophic, and, on the chromosome, has as a reporter gene a gene involved in histidine biosynthesis, HIS3, which has been ligated downstream of GAL1 promoter to which GAL4 BD can bind, as well as has of *E. coli*-derived β-galactosidase gene lazZ ligated downstream of a nucleotide sequence where GAL4 BD can bind (Gene, 212, 197 (1998)). A transformant containing both plasmid GAL4-β-catenin and cDNA clone for protein capable of binding to mβ-catenin arm and expresses the respective fusion proteins, is non-auxotrophic for histidine and is positive in β-galactosidase activity, because GAL4 BD is placed adjacent to GAL4 AD due the binding between mβ-catenin arm and the binding protein, the transcriptions of HIS3 gene and lacZ gene, downstream of the nucleotide sequence to which GAL4 BD binds, are activated. Four clones were finally selected, as colonies positive in β-galactosidase activity from 2.3 ×10^7 transformants which were grown on a medium without any of leucine, histidine, and tryptophan.
# Each of these expression plasmids for fusion proteins of GAL4 AD and ICAT mutants was introduced together with the bait plasmid GAL4-β-catenin for mβ-catenin arm into yeast HF7C strain in the same manner as in Example 1, and then the binding of each ICAT mutant with β-catenin was evaluated based on the presence of β-galactosidase activity in the transformants.
# mouse β-catenin [2] = biological target: T1, mouse β-catenin; assay: immunoprecipitation with anti-ICAT antibody from mouse brain lysate, Western blotting with anti-β-catenin antibody
# Procedure: In the experiment for the detection of ICAT with immunoprecipitation and Western blotting using mouse brain lysate in Example 6, immunoprecipitation was carried out with the anti-ICAT antibody, and then Western blotting was performed with the anti-β-catenin monoclonal antibody (Transduction Laboratory; animal used for the immunization is mouse) as a primary antibody for the detection. […] However, when, in this experiment, the anti-ICAT antibody, which had previously been reacted to GST/ICAT, was used in the immunoprecipitation, the band of β-catenin was not detected because of inhibition of immunoprecipitation.
# [3] = biological target: T2, N-terminal portion of mouse β-catenin …; assay: GST/ICAT pull-down of ^35S-labeled in vitro translated protein, autoradiography
# Procedure: (§1) The GST/ICAT-expressing E. coli as well as control GST-expressing E. coli prepared in Example 3 were cultured to obtain the respective bacterial lysates. Glutathione-Sepharose 4B (Amersham-Pharmacia Biotech) was added to these bacterial lysates, and […] or GST was adsorbed on it to isolate it. The GST/ICAT- or GST-adsorbed glutathione-Sepharose 4B was reacted to the above-mentioned ^35S-labeled β-catenin in buffer A containing 0.1% Triton X-100 at 4° C. for 2 hours. After the glutathione-Sepharose 4B was washed well with buffer A and then SDS-PAGE sample buffer was added thereto to elute the bound protein to the sample buffer. The eluate was used as a sample in SDS-PAGE in which the gel concentration was 15% and then the gel was visualized by autoradiography. […] Accordingly, it has been verified that GST/ICAT directly binds to β-catenin in vitro and that the site responsible for the binding to β-catenin is located within the ICAT moiety of GST/ICAT.
# (§2) The region of β-catenin responsible for the binding with ICAT was determined as follows. DNA fragments encoding the region of armadillo domain of mouse β-catenin (residues 141 to 664 in the amino acid sequence), N-terminal portion (residues 1 to 140 in the amino acid sequence), and C-terminal portion (residues 665 to 782 in the amino acid sequence) were amplified by PCR. […]
# [4] = biological target: T3, C-terminal portion of mouse β-catenin …; assay: as above
# Procedure: as §1, §2
# mouse β-catenin [5] = biological target: T1, mouse β-catenin; assay: GST fusion pull-down in vitro, as in Example 8
# Procedure: as §1, with “Analysis of Binding Between ICAT and β-catenin (1) Detection of the Direct Binding In Vitro The direct binding of ICAT to β-catenin was verified as follows. ^35S-labeled β-catenin was translated and synthesized from mouse β-catenin mRNA in vitro by using ^35S-labeled methionine TNT-reticulocyte lysate system (Promega). The GST/ICAT-expressing” for “The GST/ICAT-expressing”, “of GST/ICAT. […]” for “of GST/ICAT.”
Binder,binding result [1],further results
B1,no binding,–
B2,–,binding result (mouse β-catenin [2]): binds
B3,–,binding result [3]: no binding; binding result [4]: no binding
B4,no binding,–
B5,–,binding result (mouse β-catenin [5]): no binding
B6,no binding,–
B7,no binding,–
B8,no binding,–
